This test has as its target ShB-IR (Shaker ShB variant with inactivation removed) (UniProt P08510). The test is described as follows: cell-based or functional assay.

Chain of ShB-IR (Shaker ShB variant with inactivation removed) (P08510 other isoform, or with tags, fused parts or gaps mutant): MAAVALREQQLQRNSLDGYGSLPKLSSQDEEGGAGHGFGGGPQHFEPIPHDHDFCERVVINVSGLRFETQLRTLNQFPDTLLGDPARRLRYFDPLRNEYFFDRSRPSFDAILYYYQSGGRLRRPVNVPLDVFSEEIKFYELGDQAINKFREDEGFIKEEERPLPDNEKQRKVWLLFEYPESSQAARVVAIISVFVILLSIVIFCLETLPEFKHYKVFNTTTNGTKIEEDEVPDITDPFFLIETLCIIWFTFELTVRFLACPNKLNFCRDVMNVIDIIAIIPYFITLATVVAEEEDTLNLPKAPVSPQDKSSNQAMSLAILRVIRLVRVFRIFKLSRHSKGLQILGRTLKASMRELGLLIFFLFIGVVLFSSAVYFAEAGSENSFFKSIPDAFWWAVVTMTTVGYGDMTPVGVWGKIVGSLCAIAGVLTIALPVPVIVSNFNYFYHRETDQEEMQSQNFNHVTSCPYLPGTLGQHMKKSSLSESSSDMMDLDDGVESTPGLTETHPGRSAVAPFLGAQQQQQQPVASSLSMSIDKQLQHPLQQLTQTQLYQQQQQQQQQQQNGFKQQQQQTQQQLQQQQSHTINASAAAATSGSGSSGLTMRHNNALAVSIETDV

Take “recombinant charybdotoxin (ChTx) (from UniProt P13487 23-59) (peptide)”: the inhibition of ShB-IR currents by 24 nM recombinant ChTx, two-electrode voltage clamp turned out to be 15%.

Source of the values: patent US20090203598A1.
